Laboratory results from patent US20150147342A1 (published 2015).

Columns and labels:
[1] = target: T1, Dimeric fibrinogen-like domain of mouse (Mus musculus) Ang-2 conjugated to human IgG1 (mouse (Mus musculus)); test: SPR, antibody captured, room temp
T1 construct: also called Dimeric Mouse Ang-2FD; Mouse Ang-2FD-hFc
Description: (§1) Antibody was captured on a goat anti-mouse IgG polyclonal antibody surface, a goat anti-human κ polyclonal antibody (Southern Biotech, Birmingham, Ala.) surface or a goat anti-human IgG polyclonal antibody (Jackson Immuno Research Lab, West Grove, Pa.) surface created through direct amine coupling to a BIACORE™ CM5 sensor chip to form a captured antibody surface. […] Antigen-antibody binding and dissociation were monitored in real time at room temperature. Kinetic analysis was performed to calculate KD and half-life of antigen/antibody complex dissociation.

[2] = target: T2, Dimeric fibrinogen-like domain of human Ang-2 conjugated to human IgG1 (human); test: SPR, antibody captured, room temp
T2 construct: also called Dimeric Human Ang-2FD; Human Ang-2FD-hFc
Description: as §1

[3] = target: T3, Dimeric fibrinogen-like domain of monkey (Macca fascicularis) Ang-2 conjugated to human IgG1 (monkey (Macca fascicularis)); test: SPR, antibody captured, room temp
T3 construct: also called Dimeric Monkey Ang-2FD; Monkey Ang-2FD-hFc
Description: as §1

[4] = target: T1, Dimeric fibrinogen-like domain of mouse …; test: blocking ELISA, 16.67 nM antibody, coated hTie-2-mFc
Description: (§2) Tie-2 is a natural receptor for Ang-2. Anti-Ang-2 antibodies were tested for their ability to block Ang-2 binding to human Tie-2 (hTie-2). hTie-2-mFc (a chimeric construct consisting of human Tie-2 conjugated to mouse IgG; SEQ ID NO:525) was coated onto 96-well plates at a concentration of 2 μg/ml and incubated overnight followed by washing four times in wash buffer (PBS with 0.05% Tween-20). The plate was then blocked with PBS (Irvine Scientific, Santa Ana, Calif.) containing 0.5% BSA (Sigma-Aldrich Corp., St. Louis, Mo.) for one hour at room temperature. In a separate plate, purified anti-Ang-2 antibodies, at a starting concentration of 50 nM, were serially diluted by a factor of three across the plate. […] The antibody/Ang-2FD-Fc mixture was then added to the plate containing hTie-2-mFc and incubated for one hour at room temperature.

[5] = target: T2, Dimeric fibrinogen-like domain of human …; test: as above
Description: as §2

[6] = target: T3, Dimeric fibrinogen-like domain of …; test: as above
Description: as §2

Mouse Ang-2FD-hFc = target: T4, Mouse Ang-2FD-hFc (mouse (Mus musculus)); test: ELISA, 16.67 nM antibody + 8 nM mouse Ang-2FD-hFc, on coated hTie-2-mFc (competitor)
T4 construct: Order of the pieces follows the name; also called Dimeric Mouse Ang-2FD
Description: as §2

Human Ang-2FD-hFc = target: T5, Human Ang-2FD-hFc (human); test: ELISA, 16.67 nM antibody + 2 nM human Ang-2FD-hFc, on coated hTie-2-mFc (competitor)
T5 construct: Order of the pieces follows the name (Ang-2FD, then hFc); also called Dimeric Human Ang-2FD; human Ang-2FD protein conjugated to human IgG
Description: as §2

Binder	Kd [1]	T1/2 [1]	Kd [2]	T1/2 [2]	Kd [3]	T1/2 [3]	Percent Blocking of Ang-2FD Binding to Tie-2 [4]	Percent Blocking of Ang-2FD Binding to Tie-2 [5]	Percent Blocking of Ang-2FD Binding to Tie-2 [6]	Percent Blocking of Ang-2FD Binding to Tie-2 (Mouse Ang-2FD-hFc)	Percent Blocking of Ang-2FD Binding to Tie-2 (Human Ang-2FD-hFc)
H2M743N (antibody, V domains shown) VH: EVQLLESGGGLVQPGGSLRLSCAASGFTFRKYAMSWVRQAPGKGLEWVSVISVSGGNTYYADSVKGRFTISRDNSKNTLYLQLNSLRAEDTAVYYCAKDLTDIVLMVYVDYWGQGTLVTVSS VL: DIQMTQSPSSVSASVGDRVTITCRASQDIDRWLAWYQQKPGKAPKLLIYAASSLQSGVPSRFSGSGSGTDFTLTISTLQPEDFATYYCQQANSLPFTFGGGTKVEIK	0.882 nM	195 min	0.154 nM	167 min	0.234 nM	169 min	98.4%	99.6%	95.1%	–	–
H1H693P (antibody, V domains shown, Fully human antibody, human IgG1) VH: EVQLVESGGGLVQPGESLRLSCAASGFTFSSYAMSWVRQGPGKGLEWVSSISGSGGTTYYADSVEGRFTISRDNSKNTLYLHMNSLRAEDTAVYYCAKDFLDYSTYLAFDLWGQGTMVTVSS VL: DIQMTQSPSSVSASVGDRVTITCRASQGISSWLAWYQQKPGKAPKLLIYAASSLQSGVPSRFSGSGSGTDFTLTISSLQPEDFATYYCQQANSFPRTFGQGTKVEIK	–	–	–	–	–	–	–	–	–	63.6%	73.9%
H1M728N (antibody, V domains shown) VH: EVQLVESGGDLVQPGGSLRLSCTASGFTFSKYWMTWVRQAPGRGLEWVANIKEDGNEKYFLDSVKGRFTISRDNAKDLLFLQMNSLRGEDTAVYYCVRDRGIEVAGPFDYWGQGTLVTVSS VL: DIQMTQSPSTLSASVGDRVTVTCRASQTIINWLAWYQQKPGKAPKLLISKASSLESGVPSRFSGSGSGTEFTLTISSLQPDDFATYYCQQYNRYWTFGQGTMVEIK	5.65 nM	9.9 min	0.137 nM	58.4 min	1.58 nM	69.5 min	83.9%	98.5%	97.1%	–	–
H2M730N (antibody, V domains shown) VH: EVQLVESGGGLVQPGGSLRLSCAASGFAFRSYWMTWVRQAPGKGLEWVANIQQDGNDKYYVDSVKGRFTISRDNAKNSLYLQMNSLRAEDTAVYYCARDTGIAEAGPFDYWGQGTLVTVSS VL: DIQMTQSPSTLSASVGDRVSITCRASQTIISWLAWYQQKPGKAPRLLIYKASSLESGVPSRFSGSGSGTEFTLTINSLQPDDFATYYCQQYNRYWTFGQGTKVEIK	–	–	0.21 nM	47 min	0.842 nM	36.6 min	55%	98.9%	97.3%	–	–
H1M724N (antibody, V domains shown) VH: QVQLVESGGGVVQPGRSLRLSCAASGFTLSNYGMHWVRQAPGKGLEWVAVIWHDGSNTYYADSVKGRFTISRDNSKNTLYLQMNSLRAEDTAVYYCTREGLDFWSGYYPNWFDPWGQGTLVTVSS VL: DIQMTQSPSSLSASVGDRVTITCRASQGIRNDLGWYQQKPGKAPKRLIYAASNLQGGVPSRFSGSGSGTEFTLTISSLQPEDFAAYYCLQHNIYPLTFGGGTKVEIK	0.694 nM	16 min	0.179 nM	42.7 min	0.73 nM	25.7 min	96.6%	99.5%	95.2%	–	–
H1M732N (antibody, V domains shown) VH: EVQLVESGGGLVRPGGSLRLSCAASGFTFTNAWMSWVRQAPGKGLEWIGQIKSKTDGGTIDYAAPVKGRFTVSRDDSENTLFLQMNSLKTEDTAVYYCAGNWNYVDFDYWGQGTLVTVSS VL: DIQMTQSPSSLSASVGDRVTITCRASQDIRNDLGWYQQKPGKAPKRLIYAASSLQGGVPSRFSGSGSGTEFTLTISSLQPEDFATYYCLQHNSYPFTFGPGTKVDIK	1.7 nM	21.4 min	0.484 nM	35.5 min	7.33 nM	24.1 min	90.9%	97.7%	95.8%	–	–
H2M744N (antibody, V domains shown) VH: QVQLVQSGVEVKKPGASVKVSCKTSGYTFSNNGFSWVRQAPGQGLEWLGWISGYNGNTNYAQKFQGRVTMTTDTSTSTAYMELRTLRSDDTAVYYCARDQDYSNFHWLDPWGQGTLVTVAS VL: DIQMTQSPSSVSASVGDRVIITCRASQGLSSWLAWYQQKPGTAPKLLIHSASSLQTGVPSRFSGSGSGTEFALTINSLQPEDFGTYYCQQANSFPLTFGGGTRVEIK	0.143 nM	223 min	0.0989 nM	109 min	0.5 nM	282 min	98.4%	99.5%	95.5%	–	–
H1H685P (antibody, V domains shown, Fully human antibody, human IgG1; also called mAb1) VH: EVQLVESGGGLVQPGGSLRLSCAASGFTFSSYDIHWVRQATGKGLEWVSAIGPAGDTYYPGSVKGRFTISRENAKNSLYLQMNSLRAGDTAVYYCARGLITFGGLIAPFDYWGQGTLVTVSS VL: EIVLTQSPGTLSLSPGERATLSCRASQSVSSTYLAWYQQKPGQAPRLLIYGASSRATGIPDRFSGSGSGTDFTLTISRLEPEDFAVYYCQHYDNSQTFGQGTKVEIK	–	–	–	–	–	–	–	–	–	97.1%	–
H2M749N (antibody, V domains shown, Hybridoma-derived chimeric antibody, mouse constant domains; also called H1M749N; H1M749) VH: QVQLVESGGGVVQPGRSLRLSCAASGFTFSSYGMHWVRQAPGKGLEWVAVIWYDEFNKYYADSVKGRFTISRDNSKNTLYLQMNSLRAEDTAVYYCARERESGYSYGFDYWGQGTLVTVSS VL: EIVMTQSPATLSVSPGERATLSCRAGQSVSSNLAWYQQKPGQAPRLLIYGASTRATGIPARFSGSGSGTEFTLTISSLQSEDFAVYYCQQYNNWWTFGQGTKVEIK	0.529 nM	25.5 min	0.165 nM	42.9 min	1.5 nM	40.9 min	97.3%	99.5%	97.4%	–	–
H1H695P (antibody, V domains shown, Fully human antibody, human IgG1) VH: QVQLVESGGGVVQPGRSLRLSCAASGFTFSSYGMHWVRQAPGKGLEWVAVMWYDETNKYYADSVKGRFTISRDNSKNTLYLQMNSLRAEDTAVYYCARYSGYEDYYHGMDVWGQGTTVTVS VL: EIVMTQSPATPSVSPGERATLSCRASQSISSNLAWYQQKPGQAPRLLIYGASTRATGIPARFSGSGSGTEFTLTISSLQSEDFAVYYCQHYNNWITFGQGTRLEIK	–	–	–	–	–	–	–	–	–	97.6%	98.4%
H2M750N (antibody, V domains shown) VH: QVKLVESGGGVVQPGRSLRVSCAASGFTFSSYGMHWVRQAPGKGLEWLAIIWYDGDNKYYSDSVKGRFTISRDNSKNTLYLQMNSLRAEDTAEYYCVRDASIASRFLDYWGQGTLVTVSS VL: DIQMTQSPSSLSASIGDRVTITCRATQDINNYLAWFQQKPGKAPKSLIYATSNLQSGVPSKFSGSGSGTDYTLTISSLQPEDFSTYYCQQYHSYPLTFGGGTKVEIK	–	–	0.362 nM	32.2 min	1.47 nM	23 min	53.7%	99.4%	97.4%	–	–
H2M742N (antibody, V domains shown) VH: DVQLLESGGDLVQPGGSLRLSCEASGFTFRNYVMIWVRQAPGKGLEWVSGISNSGGTTHYTDSVKGRFTISRDNSKNTLYLQINSLRAEDTAVYYCAKGYLDTSLIEGNWFDPWGQGTLVTVSS VL: NIVMTQSPLSLPVTPGEPASISCRSSQSLLHSNGFNYLNWFLQKPGQSPQLLIYLGSNRASGVPDKFSGSGSGTDFTLNINRVEAEDVGIYFCMQTLQTPLTFGGGTKVEIK	0.61 nM	30.8 min	0.295 nM	38 min	6.17 nM	28.5 min	98.6%	99.6%	94.1%	–	–
